# The DeepSol protein solubility set
# Test: soluble on expression in E. coli; label from the status in PepcDB or PDB records
row,Sequence,soluble on expression in E. coli
1,MDTGNNNNLPTLLKCNFPPYGKDYPGGFATGRFSDGRVPSDLIAEKLGLAKTLPAYMNPYLKPEDLLKGVTFASGGTGYDPLTAKIMSVISVWDQLINFKEYISKIKRHFGEEKAKDILEHSFFLVVSSSNDLAHTYLAQTHRYDRTSYANFLADSAVHFVRELHKLGARKIGVFSAVPVGCVPLQRTVFGDKELDGVILYINVYDTLFDMIQHPKKYGFEVADRGCCGKGLLAISYLCNSLNPFTCSNSSAYIFWDSYHPSERAYQVIVDNLLDKYLSKVY,soluble
2,MSLDTENVKYRSITTKIELDDLIESLKKAKYISIDTETSSLDTYTAKLIGISISFKEFEGYYIPIEAKGKIYIEKNYIIQKFNNLFESNPKIIGQNYKFDYKILKNNGFNPIPPYFDTMIAAYLIDTNSKVSLDFLAEKYLMHKNIKYEDVIQKNDNFANISLEMATSYSSEDADITFRLFNIFTKKLKEDKLDKLMHEIEMPFNKVIIEMEENGIYLDKEYLKEYGKELGKELEAIENEIIKSIGIDFNLNSPKQMHEILFEKLNLKLPEKMKKDSTDIKVLESLREQHESIENLIKYRQIAKLKSTYTDNLIELINYKTNRLHTSFIQTKTATGRITSINPNLQNIPIKDEKGRKIRKAFKPENGNIFISADYSQIELAILAHLSQDEVLIKAFENNKDIHTETASKLFKIEEKEITPNLRRIAKSINFGIIYRMSDFRLAKELGITKEEAKGFINSYFDSYPKIKEFIINQINFVRNAGYSETILKRRRYIKEINSNNYLERSAAERIAINSIIQGSAADIMKIAMVKVFNEFKSKKMESKILLQVHDEMLIESPIEEENEVKKILKIMMETAYTLNLPLRANIETGKSWGEIHEGHHHHHH,soluble
3,MTSIHSPVTRKEDTELKRPDLRGKFVCSSCSQNFQHSASLNRHRQLMHSNEHTCMMCERALNQKETIREHMRNEHNLAQVFTCGCCNWTFASKRQLTEHTKCIQGTGAPGDTIPIAKSINAPGSLIQSTIQGTPPVVKTGRKRPMGGSLSPSSSVSTSISSRDASGSPPPTEEEAERKVLFDNAVDTILQSKFFTYQQITEVDTWVKIIESANTLADTLQRIKKSQKVKAEGPAVESKMIPEKHVKQEIE,not soluble
4,SAEGSRGGPTCSGVGGRQDPVSGSGGCNFPEYELPELNTRAFHVGAFGELWRGRLRGAGDLSLREPPASALPGSQAADSDREDAAVARDLDCSLEAAAELRAVCGLDKLKCLEDGEDPEVIPENTDLVTLGVRKRFLEHREETITIDRACRQETFVYEMESHAIGKKPENSADMIEEGELILSVNILYPVIFHKHKEHKPYQTMLVLGSQKLTQLRDSIRCVSDLQIGGEFSNTPDQAPEHISKDLYKSAFFF,soluble
5,TGSGELLLTSPKGSLTLFAYPGKPSLVTVSDFSAGLLDGTVAVNHMDYDLKSKHTETLVQLNGIPIQSLLDLQGASKLSATGTIRGAIPVVLDNNLFSIPEGRMDAEKNGLIIYASTPEERAAAGAGMRLTYEALGNFFYSELVSNIVMTPDGNSTISIQLKGRNPDFQNNRPVNLNLNIQQNLLDLFRSLTLSSDIEEAISKKVLENSGG,not soluble
6,MDRRTFLKSASMKGTAIVTASAVGTEMLHAAESIGASDVASGKRNAPKAKRLPEDLQELVKDSSLLRKPDNLTVACYTFPNYHASALHDKIYGPGWTEYNLVRSARPWFQGHAQPRGPLLGEMDESKPGTWEKYNELCKQSGIDVLIWDWYWYNNEPCLHEALENGFLRASNRNDVKFACMWTNHPWYVLYPTLLPNGYKAYPPSFAPADGSLKECWQSLSYIISRYCHLENYWRIDDKPVVCIWDPNRLEKNIGVDGVKQLFAELTEFARKLGHKGLHFHSSGFYSPNSKEVGYNTAGSYNPFTWVADNYQPKNIELPDYGVAAADVAFKLWPKHHDDFAIPYLPSLSPGWDSTPRYIPPVSRPDQPNRDAWPNCVILDNENPASFKALVQSAFAYLNKHKDVPPILTIACFNEWTEGHYLLPDNRFGYGMLDALAEAVGKSDNHQIHGFFLEHHHHHH,not soluble
7,MRGSHHHHHHTDPALRADIIFYHPTFDTQWWIEALRKAIPQARVRAWKSGDNDSADYALVWHPPVEMLAGRDLKAVFALGAGVDSILSKLQAHPEMLNPSVPLFRLEDTGMGEQMQEYAVSQVLHWFRRFDDYRIQQNSSHWQPLPEYHREDFTIGILGAGVLGSKVAQSLQTWRFPLRCWSRTRKSWPGVQSFAGREELSAFLSQCRVLINLLPNTPETVGIINQQLLEKLPDGAYLLNLARGVHVVEDDLLAALDSGKVKGAMLDVFNREPLPPESPLWQHPRVTITPHVAAITRPAEAVEYISRTIAQLEKGERVCGQVDRARGYGLCGR,soluble
8,MRLYWRMPTTTPALRPQDLTETAFAPYGWMLGKPLPAGDDVLRFSNPATDFWQEHVFDTGAGAGRETEVLWVNYRISQPGFDTLEKHLLTQQAIVPLTGAIVQIVARSAFDGSPDLASLAAFVVPPGQGICMRPGCWHATRISGGEVTCLMLTRRSTTLDLVRHLHGEPARESEIVAIVPHGLDLPARPTAEGPAPHGRLEHHHHHH,not soluble
9,MNFGACPADIEDDEVVASFNVYASPALVNQAHIFQYPLRRRQRPYEATEIKLFSTSGTVAEESEALLAQGKGSSVLQPGSRLTMKCSLDTFGSPSFRPLPEFAPDMLGQMELQRHHTFNYTLQSQPFLPQSNYVLGYITLEGIHLTPVSTIQQFTPALSIPESSTGAVRVTEAFCSQSNSTAMPGFAAADRIQRELRRQRSRVLNGEADTAQEIQFFRDDSVESSAMRSRLCSSTLERITGNLNAASEPAEVENSLFPPEILQSGGISGGDEAHPSMIIHRFANCKSVAEQTNQLLQRCHILTLQRLQNIVVPYTSNEVVKTMSTVPEAQLVEALKSCAVWLHGVWVSRYCDQFRGSVAALREVILARFYQSEDGSVARADFNAWITTSAARRSIKEILATVAVLNTDEPDPSKRRWRLKYVPEDRAAREANLRDFKAKFAAEEASQHEAWRRRCAQVMAHIPYINAGRPVSQLCLRPRSTPPTTGTAASATLPYGSPNAAQSIAPSVSSMTSGHSGSGVTASASPFSSPAPGADLGFKDADIAPIRHYIRELFAEHGVINKQRVKDLVIKAQEARYPHATKAMLSTALQQCLDKFTDATWILKSAGEPIVDYYRPAILYVVLELRQFEMAALMKRLEEVVRARGLTSPPESAALRGRIGGASGTLEAVVQRVVAEVAEFKAGGRLWHIKGGNLMNE,not soluble
10,MGSDKIHHHHHHMTLKSRIGILAGKTAHFFLSKIGRGSTLPGKIALKCDKDILDTLAKDYDIVVVTGTNGKTLTTALTVGILKEAYGQVLTNPSGANMITGITSTFLTAKKSRNGKKIAVLEIDEASLPKITDYLKPSLFVFTNIFRDQMDRYGEIYTTYQMILDGAAKAPKATILANGDSPLFNAKTVVNPVRYYGFDTKKEAAHLAHYNTEGIVCPKCEYILQYKLNTYANLGDYICPNCGFHRPHLDYSLTQLTKISNTQAEFIIDGQDYKINVGGLYNIYNALAAVAVAEFLGVTPEQIKAGFDKSRAVFGRQETFKIGDKSCTLVLIKNPVGASQALEMIKLAPYPFTLSVLLNANYADGIDTSWIWDANFESILDMNIPQIFTGGVRHSEIARRLRVTGYNETKIEQAEKLEDILSMIEKQEADHAYILATYTAMLEFRELLASRHAVRKEMH,not soluble
11,MGSDKIHHHHHHMEVQLPKIKTVRVMLAGMTAQQESVFKMAFKMHNTTRYETVSPSDGSAVPDLVLADTDAEGGFELWKELAGRYKAIPVAVCSEKVPDSEVPYLPKPIRFETLFPMLRKLLQGENVYGKSFIAPADRSAKNNGNVQRTVTIRQFNPNKGLLGALRFAEKNRQDIAILHGNKPVLNCFPLDTTGFADRKCVKTRRIVQRRKFAGQLQDCSR,not soluble
12,MSDQPRPTVIITGASSGVGLYATKALANRGWHVIMACRNLEKAEQAAKNLQIPPEAYTILHLDLSSLASVRGFVESFRALNRPLRALVCNAAVYYPLLKEPIYSVDGYEITVATNHLGHFLLINLLLEDLKNSPESDKRLVILGTVTANRKELGGKIPIPAPPDLGNLEGFEKGFKKPIAMINGKPFKSGKAYKDSKLCNMLTARELHRRFHESTGIVFNSLYPGCVADTPLFRHHFPLFQKLFPLFQKKITGGYVSQELAGERVAMVVADPEFRQSGVHWSWGLEHHHHHH,soluble
13,DVGRVLWLAEDITQRKRRREKQALIERVFEVSPVGIVVVERSGRISLANDRAEELLGLEREKITRRRYDQPEWNIYYKDGTEIPDSEHPVTQVLESGEPVFGFEHWIELEDGSERWLSSNAAPILGDDGTVERVVVGLDD,not soluble
14,MGSDKIHHHHHHMKLHYKKEHISCTNYKSESYEGFGIGTLTSGSNFNSQTLSVKTNFLIFILEGEVEIIPKEGKIKRVIAQEFFFISALSTYEIQVRVPGRYIYMSFLYNDIKLCEKHMLESYLKEVREASEEVGILSVRHPLNLFLELIDAYLRAGVNCKHLHSIKEKELFIILRTSYSKQEIVNLFHEIIGTNMSFKAAVLLHVDRVNNREELAQAMGMSITDLARKFKVEFGESVYSWLLKQKNKKIIYRLAQPGASVKEIVYEFGFSSAASFNKYCKKNFGNSPRELVRQLKDKHIDNQNLKI,not soluble
15,RATPRMEDLASTDLSTRATGSINAVYFTNWGIYGRNFQPADLQASKILHVLYSFMNLRVDGTVYSGDTYADLEKHYSDDSWNDIGTNAYGCVKQLYKLKKANRSLKIMLSIGGWTWSTNFPAAASTEATRATFAKTAVEFMKDWGFDGIDVDWEYPASETDANNMVLLLQRVRQELDSYSATYANGYHFQLSIAAPAGPSHYNVLKLAQLGSVLDNINLMAYDYAGSWDSVSGHQTNLYPSTSNPSSTPFSTKAAVDAYIAAGVPASKIILGMPIYGRAFVGTDGPGKPYSTIGEGSWESGIWDYKVLPKAGATVITDSAAGATYSYDSSSRTMISYDTPDMVRTKVSYAKGLGLGGSMFWEASADKTGSDSLIGTALSSMGSHDSTQNCLSYPNSKFDNIKNSLS,soluble
16,MGEQPIFTTRAHVFQIDPNTKKNWMPASKQAVTVSYFYDVTRNSYRIISVDGAKVIINSTITPNMTFTKTSQKFGQWADSRANTVFGLGFSSEQQLTKFAEKFQEVKEAAKIAKDKTQEKIETSSNHSQASSVNGTDDEKASHAGPANTHLKSENDKLKIALTQSAANVKKWEIELQTLRESNARLTTALQESAASVEQWKRQFSICRDENDRLRNKIDELEEQCSEINREKEKNTQLKRRIEELEAELREKETELKDLRKQSEIIPQLMSECEYVSEKLEAAERDNQNLEDKVRSLKTDIEESKYRQRHLKVELKSFLEVLDGKIDDLHDFRRGLSKLGTDN,not soluble
17,MTFYFYFVINMEKVAIYIIGDIVLAENTGKALKKWRNLFNIQQIELAKYLNVSPSVISDYEVGRRKNPGVNIIKKYVLALIEIDKEKGGQTIKALKRILDKSPSMKAILSIKEYENPITLNEFVNIIDGEIAVGDNSDTPIYGHTVVDSIKAILEMTGDDFYHLYGWTTERALIFTNVSTGRSPMVAVRVSIMKPRVVVLQGINKDKIDSLALKLAEIDNIPLITTHLDTKELIKRLNEIK,not soluble
18,CGGCGEDVVGDGAGVVALDRVFHVGCFVCSTCRAQLRGQHFYAVERRAYCEGCYVATLE,soluble
19,GLVAPGYKMATVAVDHLLGNTESKFEGADMSAKLKLLGVKVGSIGDANGRTEGCKSYVYQNEEQEVYKRLIVSEDNKKLLGAVLVGDTSDYGDLLQLMLNEIDLPEHPDALILPAHAGAEKPALGADALPESAVICSCFDVTKGKIAQAVADGHHTLGDIK,not soluble
20,MCMPRYTQPKKTWFYPVNFKIKAVELSLRNDMLSKDVAQALDIHPLMLSRWRKEYREGKFKKNQHYQSNSELMSKIPTKKELNKIKQLQKENDRLKMENDLLKKWQRYLAEVHQSDLDSSKNTKKPLEHHHHHH,soluble
